Source: US20260001928A1 (CORTERIA PHARMACEUTICALS, priority 2022, published 2026)
*1 amine or outer side, *2 acyl side, *3 side chain or, on linkers, in order; H or OH if unused. Primed or numbered codes have the meaning given here. Side-chain parts run from the residue outwards. [ ]: non-standard residue; d: D form. The star is where a group is joined. Thp′ = 4-amino-tetrahydro-2H-pyran-4-yl-acetic acid, O=C(CC1(N[*:1])CCOCC1)[*:2]; C20 diacid = O=C(O)CCCCCCCCCCCCCCCCCCC(=O)*; γGlu = O=C(O)[C@H](CCC(=O)[*:2])N[*:1]; Api = NC1(C(=O)O)CCNCC1; Aib = CC(C)(N)C(=O)O

B1: SEQ ID NO 207 (peptide)
peptide: Ac-IVLSLD[dV]PIKLK([γGlu-C20 diacid])KILLEQEKQKKQREQAETN[Api]QILAQV-NH2
SMILES: CC[C@H](C)[C@H](NC(C)=O)C(=O)N[C@H](C(=O)N[C@@H](CC(C)C)C(=O)N[C@@H](CO)C(=O)N[C@@H](CC(C)C)C(=O)N[C@@H](CC(=O)O)C(=O)N[C@@H](C(=O)N1CCC[C@H]1C(=O)N[C@H](C(=O)N[C@@H](CCCCN)C(=O)N[C@@H](CC(C)C)C(=O)N[C@@H](CCCCNC(=O)CC[C@H](NC(=O)CCCCCCCCCCCCCCCCCCC(=O)O)C(=O)O)C(=O)N[C@@H](CCCCN)C(=O)N[C@H](C(=O)N[C@@H](CC(C)C)C(=O)N[C@@H](CC(C)C)C(=O)N[C@@H](CCC(=O)O)C(=O)N[C@@H](CCC(N)=O)C(=O)N[C@@H](CCC(=O)O)C(=O)N[C@@H](CCCCN)C(=O)N[C@@H](CCC(N)=O)C(=O)N[C@@H](CCCCN)C(=O)N[C@@H](CCCCN)C(=O)N[C@@H](CCC(N)=O)C(=O)N[C@@H](CCCNC(=N)N)C(=O)N[C@@H](CCC(=O)O)C(=O)N[C@@H](CCC(N)=O)C(=O)N[C@@H](C)C(=O)N[C@@H](CCC(=O)O)C(=O)N[C@H](C(=O)N[C@@H](CC(N)=O)C(=O)NC1(C(=O)N[C@@H](CCC(N)=O)C(=O)N[C@H](C(=O)N[C@@H](CC(C)C)C(=O)N[C@@H](C)C(=O)N[C@@H](CCC(N)=O)C(=O)N[C@H](C(N)=O)C(C)C)[C@@H](C)CC)CCNCC1)[C@@H](C)O)[C@@H](C)CC)[C@@H](C)CC)C(C)C)C(C)C
B2: SEQ ID NO 208 (peptide)
peptide: Ac-IVLSLD[dV]PIKLK([γGlu-C20 diacid])KILLEQEKQK[Aib]QREQAETN[Api]QILAQV-NH2
SMILES: CC[C@H](C)[C@H](NC(C)=O)C(=O)N[C@H](C(=O)N[C@@H](CC(C)C)C(=O)N[C@@H](CO)C(=O)N[C@@H](CC(C)C)C(=O)N[C@@H](CC(=O)O)C(=O)N[C@@H](C(=O)N1CCC[C@H]1C(=O)N[C@H](C(=O)N[C@@H](CCCCN)C(=O)N[C@@H](CC(C)C)C(=O)N[C@@H](CCCCNC(=O)CC[C@H](NC(=O)CCCCCCCCCCCCCCCCCCC(=O)O)C(=O)O)C(=O)N[C@@H](CCCCN)C(=O)N[C@H](C(=O)N[C@@H](CC(C)C)C(=O)N[C@@H](CC(C)C)C(=O)N[C@@H](CCC(=O)O)C(=O)N[C@@H](CCC(N)=O)C(=O)N[C@@H](CCC(=O)O)C(=O)N[C@@H](CCCCN)C(=O)N[C@@H](CCC(N)=O)C(=O)N[C@@H](CCCCN)C(=O)NC(C)(C)C(=O)N[C@@H](CCC(N)=O)C(=O)N[C@@H](CCCNC(=N)N)C(=O)N[C@@H](CCC(=O)O)C(=O)N[C@@H](CCC(N)=O)C(=O)N[C@@H](C)C(=O)N[C@@H](CCC(=O)O)C(=O)N[C@H](C(=O)N[C@@H](CC(N)=O)C(=O)NC1(C(=O)N[C@@H](CCC(N)=O)C(=O)N[C@H](C(=O)N[C@@H](CC(C)C)C(=O)N[C@@H](C)C(=O)N[C@@H](CCC(N)=O)C(=O)N[C@H](C(N)=O)C(C)C)[C@@H](C)CC)CCNCC1)[C@@H](C)O)[C@@H](C)CC)[C@@H](C)CC)C(C)C)C(C)C
B3: SEQ ID NO 209 (peptide)
peptide: Ac-IVLSLD[dV]PIKLK([γGlu-C20 diacid])KILLEQEKQK[Aib]QREQAETN[Aib]QILAQV-NH2
SMILES: CC[C@H](C)[C@H](NC(C)=O)C(=O)N[C@H](C(=O)N[C@@H](CC(C)C)C(=O)N[C@@H](CO)C(=O)N[C@@H](CC(C)C)C(=O)N[C@@H](CC(=O)O)C(=O)N[C@@H](C(=O)N1CCC[C@H]1C(=O)N[C@H](C(=O)N[C@@H](CCCCN)C(=O)N[C@@H](CC(C)C)C(=O)N[C@@H](CCCCNC(=O)CC[C@H](NC(=O)CCCCCCCCCCCCCCCCCCC(=O)O)C(=O)O)C(=O)N[C@@H](CCCCN)C(=O)N[C@H](C(=O)N[C@@H](CC(C)C)C(=O)N[C@@H](CC(C)C)C(=O)N[C@@H](CCC(=O)O)C(=O)N[C@@H](CCC(N)=O)C(=O)N[C@@H](CCC(=O)O)C(=O)N[C@@H](CCCCN)C(=O)N[C@@H](CCC(N)=O)C(=O)N[C@@H](CCCCN)C(=O)NC(C)(C)C(=O)N[C@@H](CCC(N)=O)C(=O)N[C@@H](CCCNC(=N)N)C(=O)N[C@@H](CCC(=O)O)C(=O)N[C@@H](CCC(N)=O)C(=O)N[C@@H](C)C(=O)N[C@@H](CCC(=O)O)C(=O)N[C@H](C(=O)N[C@@H](CC(N)=O)C(=O)NC(C)(C)C(=O)N[C@@H](CCC(N)=O)C(=O)N[C@H](C(=O)N[C@@H](CC(C)C)C(=O)N[C@@H](C)C(=O)N[C@@H](CCC(N)=O)C(=O)N[C@H](C(N)=O)C(C)C)[C@@H](C)CC)[C@@H](C)O)[C@@H](C)CC)[C@@H](C)CC)C(C)C)C(C)C
B4: SEQ ID NO 211 (peptide)
peptide: Ac-IVLSLD[dV]PIKLK([γGlu-C20 diacid])KILLEQEAQKKQREQAETN[Aib]QILAQV-NH2
SMILES: CC[C@H](C)[C@H](NC(C)=O)C(=O)N[C@H](C(=O)N[C@@H](CC(C)C)C(=O)N[C@@H](CO)C(=O)N[C@@H](CC(C)C)C(=O)N[C@@H](CC(=O)O)C(=O)N[C@@H](C(=O)N1CCC[C@H]1C(=O)N[C@H](C(=O)N[C@@H](CCCCN)C(=O)N[C@@H](CC(C)C)C(=O)N[C@@H](CCCCNC(=O)CC[C@H](NC(=O)CCCCCCCCCCCCCCCCCCC(=O)O)C(=O)O)C(=O)N[C@@H](CCCCN)C(=O)N[C@H](C(=O)N[C@@H](CC(C)C)C(=O)N[C@@H](CC(C)C)C(=O)N[C@@H](CCC(=O)O)C(=O)N[C@@H](CCC(N)=O)C(=O)N[C@@H](CCC(=O)O)C(=O)N[C@@H](C)C(=O)N[C@@H](CCC(N)=O)C(=O)N[C@@H](CCCCN)C(=O)N[C@@H](CCCCN)C(=O)N[C@@H](CCC(N)=O)C(=O)N[C@@H](CCCNC(=N)N)C(=O)N[C@@H](CCC(=O)O)C(=O)N[C@@H](CCC(N)=O)C(=O)N[C@@H](C)C(=O)N[C@@H](CCC(=O)O)C(=O)N[C@H](C(=O)N[C@@H](CC(N)=O)C(=O)NC(C)(C)C(=O)N[C@@H](CCC(N)=O)C(=O)N[C@H](C(=O)N[C@@H](CC(C)C)C(=O)N[C@@H](C)C(=O)N[C@@H](CCC(N)=O)C(=O)N[C@H](C(N)=O)C(C)C)[C@@H](C)CC)[C@@H](C)O)[C@@H](C)CC)[C@@H](C)CC)C(C)C)C(C)C
B5: SEQ ID NO 212 (peptide)
peptide: Ac-IVLSLD[dV]PIKLK([γGlu-C20 diacid])KILLEQEKQKAQREQAETN[Aib]QILAQV-NH2
SMILES: CC[C@H](C)[C@H](NC(C)=O)C(=O)N[C@H](C(=O)N[C@@H](CC(C)C)C(=O)N[C@@H](CO)C(=O)N[C@@H](CC(C)C)C(=O)N[C@@H](CC(=O)O)C(=O)N[C@@H](C(=O)N1CCC[C@H]1C(=O)N[C@H](C(=O)N[C@@H](CCCCN)C(=O)N[C@@H](CC(C)C)C(=O)N[C@@H](CCCCNC(=O)CC[C@H](NC(=O)CCCCCCCCCCCCCCCCCCC(=O)O)C(=O)O)C(=O)N[C@@H](CCCCN)C(=O)N[C@H](C(=O)N[C@@H](CC(C)C)C(=O)N[C@@H](CC(C)C)C(=O)N[C@@H](CCC(=O)O)C(=O)N[C@@H](CCC(N)=O)C(=O)N[C@@H](CCC(=O)O)C(=O)N[C@@H](CCCCN)C(=O)N[C@@H](CCC(N)=O)C(=O)N[C@@H](CCCCN)C(=O)N[C@@H](C)C(=O)N[C@@H](CCC(N)=O)C(=O)N[C@@H](CCCNC(=N)N)C(=O)N[C@@H](CCC(=O)O)C(=O)N[C@@H](CCC(N)=O)C(=O)N[C@@H](C)C(=O)N[C@@H](CCC(=O)O)C(=O)N[C@H](C(=O)N[C@@H](CC(N)=O)C(=O)NC(C)(C)C(=O)N[C@@H](CCC(N)=O)C(=O)N[C@H](C(=O)N[C@@H](CC(C)C)C(=O)N[C@@H](C)C(=O)N[C@@H](CCC(N)=O)C(=O)N[C@H](C(N)=O)C(C)C)[C@@H](C)CC)[C@@H](C)O)[C@@H](C)CC)[C@@H](C)CC)C(C)C)C(C)C
B6: SEQ ID NO 213 (peptide)
peptide: Ac-IVLSLD[dV]PIKLK([γGlu-C20 diacid])KILLEQEKQKEQREQAETN[Aib]QILAQV-NH2
SMILES: CC[C@H](C)[C@H](NC(C)=O)C(=O)N[C@H](C(=O)N[C@@H](CC(C)C)C(=O)N[C@@H](CO)C(=O)N[C@@H](CC(C)C)C(=O)N[C@@H](CC(=O)O)C(=O)N[C@@H](C(=O)N1CCC[C@H]1C(=O)N[C@H](C(=O)N[C@@H](CCCCN)C(=O)N[C@@H](CC(C)C)C(=O)N[C@@H](CCCCNC(=O)CC[C@H](NC(=O)CCCCCCCCCCCCCCCCCCC(=O)O)C(=O)O)C(=O)N[C@@H](CCCCN)C(=O)N[C@H](C(=O)N[C@@H](CC(C)C)C(=O)N[C@@H](CC(C)C)C(=O)N[C@@H](CCC(=O)O)C(=O)N[C@@H](CCC(N)=O)C(=O)N[C@@H](CCC(=O)O)C(=O)N[C@@H](CCCCN)C(=O)N[C@@H](CCC(N)=O)C(=O)N[C@@H](CCCCN)C(=O)N[C@@H](CCC(=O)O)C(=O)N[C@@H](CCC(N)=O)C(=O)N[C@@H](CCCNC(=N)N)C(=O)N[C@@H](CCC(=O)O)C(=O)N[C@@H](CCC(N)=O)C(=O)N[C@@H](C)C(=O)N[C@@H](CCC(=O)O)C(=O)N[C@H](C(=O)N[C@@H](CC(N)=O)C(=O)NC(C)(C)C(=O)N[C@@H](CCC(N)=O)C(=O)N[C@H](C(=O)N[C@@H](CC(C)C)C(=O)N[C@@H](C)C(=O)N[C@@H](CCC(N)=O)C(=O)N[C@H](C(N)=O)C(C)C)[C@@H](C)CC)[C@@H](C)O)[C@@H](C)CC)[C@@H](C)CC)C(C)C)C(C)C

These binders were tested against T1, CRF1R receptor (UniProt P34998 24-415, limits assumed) (assay: cell-based or functional assay).
T1 sequence (looked up): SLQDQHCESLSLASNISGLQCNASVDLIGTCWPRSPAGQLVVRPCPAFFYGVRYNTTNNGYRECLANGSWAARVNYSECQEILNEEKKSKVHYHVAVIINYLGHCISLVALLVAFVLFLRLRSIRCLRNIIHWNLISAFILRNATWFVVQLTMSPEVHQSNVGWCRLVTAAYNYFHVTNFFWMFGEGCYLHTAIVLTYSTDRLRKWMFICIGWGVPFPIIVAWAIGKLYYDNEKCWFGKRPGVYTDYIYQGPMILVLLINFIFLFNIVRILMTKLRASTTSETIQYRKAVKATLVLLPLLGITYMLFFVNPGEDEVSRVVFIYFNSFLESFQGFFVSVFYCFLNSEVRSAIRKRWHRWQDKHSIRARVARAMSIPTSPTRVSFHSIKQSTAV

Row | Binder | EC50 | Emax (% I)
1 | B1 | 61.4 nM | 65%
2 | B2 | 83.9 nM | 63%
3 | B3 |  | 21%
4 | Ac-IVLSLD[dV]PIKLK([γGlu-C20 diacid])KILLEQEKQKKQREQAETN[Thp′]QILAQV-NH2 [SEQ ID NO 210] | > 250 nM | 35%
5 | B4 | 39.9 nM | 73%
6 | B5 | 229 nM | 41%
7 | B6 |  | 27%

The binders below were run against human corticotropin-releasing factor 2a (CRF2a receptor) (human), Q13324 (assay: cell-based or functional assay).
human corticotropin-releasing factor 2a (CRF2a receptor) (human), Q13324, sequence (Q13324 20-411): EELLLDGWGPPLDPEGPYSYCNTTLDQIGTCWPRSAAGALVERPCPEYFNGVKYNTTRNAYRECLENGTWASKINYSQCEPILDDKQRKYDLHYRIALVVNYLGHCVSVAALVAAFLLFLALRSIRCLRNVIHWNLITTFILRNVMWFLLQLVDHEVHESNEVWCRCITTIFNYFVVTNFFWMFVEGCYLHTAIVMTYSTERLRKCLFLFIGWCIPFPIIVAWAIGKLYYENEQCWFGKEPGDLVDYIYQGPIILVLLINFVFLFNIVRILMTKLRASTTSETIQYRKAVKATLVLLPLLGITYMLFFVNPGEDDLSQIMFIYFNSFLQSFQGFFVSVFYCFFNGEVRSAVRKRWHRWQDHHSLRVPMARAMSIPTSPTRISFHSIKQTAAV

Row | Binder | EC50 [nM] (cAMP)
8 | B1 | 0.12 nM
9 | B2 | 0.15 nM
10 | B3 | 0.22 nM
11 | Ac-IVLSLD[dV]PIKLK([γGlu-C20 diacid])KILLEQEKQKKQREQAETN[Thp′]QILAQV-NH2 [SEQ ID NO 210] | 0.21 nM
12 | B4 | 0.15 nM
13 | B5 | 0.11 nM
14 | B6 | 0.22 nM
